From the supplement of paper PMC9170038

Tested on: MS2 coat protein
Experiment: apparent KD of MS2 coat protein; higher = weaker reporter binding
Settings: Eterna round: R107
In short: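 Apparent KD was obtained for each design as the median of normalised binding-curve fits over its clusters. RNA switches transcribed on-chip from Illumina sequencing clusters were titrated with SNAP-549-labelled MS2 coat protein (twofold steps, 0.7 or 1.5 nM to 3 µM) in 100 mM Tris-HCl pH 7.5, 80 mM KCl, 4 mM MgCl2, without or with constant ligand.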

[1] = input ligand: theophylline 20 uM
[2] = input ligand: theophylline 2 mM
[3] = input ligand: tryptophan 2.4 mM

Sequence | apparent KD of MS2 coat protein (input ligand: arginine 13.2 mM) | apparent KD of MS2 coat protein (input ligand: none) | apparent KD of MS2 coat protein [1] | apparent KD of MS2 coat protein [2] | apparent KD of MS2 coat protein [3]
UGUAUGGACUGAAGGAGCGGGUAAUAAACCUGAGGAUCACCCAGGUAAUAGGCGAAAGCCACCCAGGUAGGUCGCAGUCCAUACU | 9.98 nM | 14.1 nM | 16.1 nM | 15.1 nM | 13.2 nM
UCGCUCGCCGCAAGGCGAGCGAGUUGCGAUACCAGCCCGGAAACGGGCCCUUGGCAGCGCACAUGAGGAUCACCCAUGUCAUGUU [#1 Exclusion - Theophylline A Attempt #4 (HarryS)] | 24.7 nM | 25 nM | 31.3 nM | 30.4 nM | 16.1 nM
UGGUUUCGGUCAAUCACCGGUCCCUGGGAAGGAGCGGACUCAUGUCCAGGUAGGUCGCCCAGACAUGAGGAUCACCCAUGUGACA [Tiusdiin] | 32.5 nM | 174 nM | 409 nM | 142 nM | 24.1 nM
UUAUAUAUGCGAAGGAGCGGGAAAUAUAUAUAUAUAAUCCUAACAUGAGGAUCACCCAUGUCCCAGGUAGGUCGCGCAUAUAUGG [12.E] | 74.2 nM | 84.4 nM | 76.8 nM | 95.1 nM | 75.7 nM
AAUGUAUGGCACAUGAGGAUCACCCAUGUGCGAGGACCGGUACGGCCGCCACUCGGUCCUGGGAUCUUAAUACUAUACAUUAAUG [XTryp A #19] | 10.3 nM |  | 15.1 nM | 13.9 nM | 
GAUUACAUGAGGAUCACCCAUGUAACUGAAGGAGCGGUGAUAAAGCCAGGUAGGUCGCAGAACGACAUGUGGUUCAUCCAUGUAA [#16 Exclusion - Arginine A] | 33.7 nM | 36.8 nM | 43.9 nM | 48 nM | 30.3 nM
ACAUGAGGGAUGGAUACCAGCGACAUGAGGAUCACCCAUGUAUGAGGAUCAGCCAUGUUAUGCCCUUGGCAGCCACGAACAUGAG [ACFMULLIN] | 26.2 nM | 35.6 nM | 103 nM | 235 nM | 37.2 nM
GGUUGGUGUGGAGACAUAUUGAUUACUGAAGGAGCGGGAAUAAACCCAGGUAGGUCGCAGAGAUCCACAUGAGGAUCACCCAUGU [!0.P] | 121 nM | 44.8 nM | 42.8 nM | 41.2 nM | 22.4 nM
UAGUUGCUGACGGCCGCCACUAGAACAUGAGGAUCACCCAUGUAUUCUAGUGGACAUGGGUGGACUAGGACCGGGUCAGCAACAU [(Trp1)-(Ms2)-(T)'-(M)'-(Trp2)_Design9] | 21 nM | 20.6 nM | 37.8 nM | 21 nM | 30.8 nM
ACAUGAGGAUCACCCAUGUGAAGGCACGAUACCAGCUGAUCCCGUGGCCCUUGGCAGCGUCCGGUGUGGUCCGGCGGGUGGGACG [bbvmullin] | 25.8 nM | 29 nM | 75.4 nM | 50.3 nM | 24.4 nM
UAUCCACAUGAGGAUCACCCAUGUUAGGAAGGAGCGGUGGAUGCACCAGGUAGGUCGCCUAGCUGAGGACUGUCGGUGGAUUCGU [Exclusion - Arginine A (Freestyle 21)] | 56.5 nM | 86.5 nM | 92.1 nM | 131 nM | 94.9 nM
UUCAGCUAGUCGGCCGCCACUACCUGAGGAUCACCCUGGUAAUCCUAACACUGCUUCGGCAGUGGUAGGACCGGGACUAGCUGAG | 27.7 nM | 28.2 nM | 39.7 nM | 32.6 nM | 225 nM
UAGCGAUCUCGUUAAAGGAUCCCAUUUGAUACCAGAGAACUUUGCCUCCCUUGGCAGCAAGUGACAUGAGGAUCACCCAUGUUGA [theeternabot_exclusion_MS2_Theo_A_3] | 16.4 nM |  | 20 nM |  | 16.4 nM
GGUGGCGGGACUGAUACCAGCCACCACCGAUAGACCACAUGAGGAUCACCCAUGUUGGGUGGCCCUUGGCAGCAGUCUUGCUGCU [#1 Same State - Theophylline B Attempt #13 (HarryS)] | 64.1 nM |  | 409 nM |  | 586 nM
AUGCAUGUCAGAAGGAGCGUCAGUAACAUGAGGAUCACCCAUGUAACAUUGAAUUCGAUGAGACAGGUAGGUCGCUGAAUAGUAA [JR_SSArginiB_Sub019] | 26.4 nM | 30.6 nM | 37.7 nM | 35.9 nM | 27.8 nM
GUACAUGAGGAUCACCCAUGUGGUAGGGAUACCAGCCAGAAGAAAGGCCCUUGGCAGCUUGUAUUUAGUGUGGGUUUGUUUGUUC [Exclusion - Theophylline A] | 29 nM |  | 40.3 nM |  | 25.6 nM
CAAAAUGCGGCGGCCGCCACUCAGCUCCGUGUGGUUGGUCAUCUUAACAUGAGGAUCACCCAUGUGAGGACCGGGCCAGCGAGUG [theeternabot_exclusion_MS2_Trp_B_38] | 13.3 nM |  | 19.6 nM | 17 nM | 
GCAUCAUGAACGGCCGCCACUAAGGAAUGAGCGGCUCUUGCGAUACAUGAGGAUCACCCAUGUCUUAGGACCGGGUUCAUUGUCA [theeternabot_sameState_MS2_Trp_B_49] | 69 nM |  | 343 nM | 322 nM | 
UAAUGUGAGAGAAGGAGCGGAAGUCUCGUUACAACAUGAGGAUCACCCAUGUAACGUACAGUCCAGGUAGGUCGCUCUCGGGCGC [pqacmullin] | 16.9 nM | 14.8 nM | 21.4 nM | 18.1 nM | 15.5 nM

Sequence | apparent KD of MS2 coat protein (input ligand: arginine 13.2 mM) | apparent KD of MS2 coat protein (input ligand: none) | apparent KD of MS2 coat protein [1] | apparent KD of MS2 coat protein [2] | apparent KD of MS2 coat protein [3]
GCAUCCUAGUCGGCCGCCACUGGGUGUACCCAGUGCUGGUACAAACAUGAGGAUCACCCAUGUACCAGGACCGGGACUAGGAUGC [(Trp1)-(MT2)''-(T1)'-(MT2)'-(Ms2)-(Trp2)_Design4] | 10.8 nM | 15.6 nM | 21.2 nM | 16.7 nM | 13.8 nM
CAAAAUUACGGAAGGAGCGCGGGUAGGCGGGUUGGAUCACAUGAGGAUCACCCAUGUAAAUCGCAGGUAGGUCGCCGUAAACGCG [Eslagele] | 45.6 nM | 28.8 nM | 43.9 nM | 76.9 nM | 36 nM
CACGCACGAUCGGCCGCCACUCAUGUAGCUUACAUGAGGAUCACCCAUGUAUUUUCUUUCUUAUAGAGGACCGGGAUCGUGCGUG [#04 Same State - Tryptophan B] | 21 nM |  | 28.2 nM | 24.5 nM | 
AAUGUGAAGGCGGCCGCCACUGAUAAUAGACAUGAGGAUCACCCAUGUAUAAAUCCUCAAUAAGACAGGACCGGGCCAACUACGU [Exclusion Tryptophan B GF 1] | 93 nM |  | 114 nM | 136 nM | 
AUAACAUGAGGAUCACCCAUGUAAGCUGAAGGAGCGCUGGAAACAGCAGGUAGGUCGCAGCGGCGACCUUCCUCAUGAAGGUCGC [(M1)-(M2)-(Arg1)-(Arg2)-(A)'-(M)'-(A)''_Design5] | 19.2 nM | 14.2 nM | 25.6 nM | 17 nM | 18.5 nM
GGGCCCGGGCCGGAAACGGCCCGGGCCCUGCGAGGACCGGUACGGCCGCCACUCGCUCGAGUGGGUACAUGAGGAUCACCCAUGU [#17 Exclusion Tryptophan A] | 17.7 nM | 28.4 nM | 45.8 nM | 33.3 nM | 31.9 nM
AUCGUACCUGAUGAUACCAGCAUGUGAUCGUAACAUGAGGAUCACCCAUGUGAUCAGUGAUGCCCUUGGCAGCAUGAUCGGUACA [Same State - Theophylline B (Freestyle 15)] | 36.6 nM |  | 35.8 nM |  | 36.7 nM
AGCUCGACUCGCAGCUGGAUGCCCGCUUGCCGAGGACCGGUACGGCCGCCACUCGUCACUCGACAUGAGGAUCACCCAUGUGAUA [theeternabot_exclusion_MS2_Trp_A_32] | 36.3 nM |  | 136 nM | 140 nM | 
GCAUCCUAGUCGGCCGCCACUGCAACAUGAGGAUCACCCAUGUACUGCACAUGGGAAUGCAGUAGCAGGACCGGGACUAGGAUGC [(T1)-(M1)-(M2)-(T)''-(M)'-(T)'-(T2)_Design2_2/18/17] | 109 nM | 294 nM | 268 nM | 249 nM | 48.4 nM
AUAAAUAUAACCGAUACCAGCCUUAUACAUGAGGAUCACCCAUGUUAUGCUUCCUUUCUUGGCCCUUGGCAGCGGAAAUGGGUAA [SSTheo B #13] | 36.2 nM |  | 48.4 nM |  | 44.8 nM
AACAACAAGGGAAGGAGCGCGAAUAAUAAACAUGAGGAUCACCCAUGUAUCAUGGGCUUAACGCAGGUAGGUCGCCCACAAACAA [Exclusion Arginine B GF1] | 34 nM | 37.9 nM | 47.2 nM | 49.4 nM | 40.6 nM
ACAUUUAACUGAAGGAGCGUGAAUAACAUGAGGAUCACCCAUGUAACUUAGAUUCUUAUAUCACAGGUAGGUCGCAGACUAAUGA [JR_ExcArginiB_Sub012] | 24.9 nM | 17 nM | 25.7 nM | 21.5 nM | 19 nM
ACAUUUAACUGAAGGAGCGUGAAUAACAUGAGGAUCACCCAUGUAACUUAGAUGCUUAUUUCACAGGUAGGUCGCAGACUAAUGA [JR_ExcArginiB_Sub010] | 10.4 nM | 10.3 nM | 13.7 nM | 10.3 nM | 10.9 nM
CCCACAAGCACGGCCGCCACUAUAUUAAUUACUGUCCUAGAACAUGAGGAUCACCCAUGUUAAUGUAGGACCGGGUGCGGGCCCG [theeternabot_exclusion_MS2_Trp_B_7] | 9.21 nM |  | 11.5 nM | 9.46 nM | 
UUAUUUAACGGAAGGAGCGCGGAAAUAAAAGUGGGUAAACAUGAGGAUCACCCAUGUAAACCGCAGGUAGGUCGCCGAUAUUUAU [AstrosEXyARgB#2] | 37 nM | 76.9 nM | 93.9 nM | 95.4 nM | 59.4 nM
AAUAAGCAGCUGCAAGGUGAUCCUGCAGAUACCAGCUAGGAAACUAGCCCUUGGCAGCUGCAACAUGAGGAUCACCCAUGUAAUA [(T)'-(M)'-(T1)-(T2)-(M1)-(M2)_Design6] | 26.2 nM |  | 61.7 nM |  | 30.7 nM
ACAUGAGGAUCACCCAUGUAUGAUGUUCCUCGAGGACCGGUACGGCCGCCACUCGAACGAGUGGCGCGCGCGCGCGCGCGCGCGC [aUa] | 54.8 nM | 16.5 nM | 35.1 nM | 22.7 nM | 16.4 nM
ACAUGAGGAUCACCCAUGUCACGGCACGAUACCAGCUGAUGCGGUGGCCCUUGGCAGCGUGACGUUUGGUCCCGCGGAUGACGGG [zzmullin] | 36.6 nM |  | 74.3 nM |  | 53.2 nM
UACAUGAGGAUCACCCAUGUCUGAACUGAAGGAGCGCUAAAUAAGGCAGGUAGGUCGCGGAAUUUUGUGUGCAUAUGCAUAUGGG [9.L] | 34.5 nM | 36.4 nM | 39.4 nM | 37.9 nM | 38.2 nM
